Data published in patent publication US20090136936A1.

Target: PA-FITC (PA antigen of Bacillus anthracis) (Bacillus anthracis) (UniProt P13423)
Sequence (P13423 30-764 limits assumed): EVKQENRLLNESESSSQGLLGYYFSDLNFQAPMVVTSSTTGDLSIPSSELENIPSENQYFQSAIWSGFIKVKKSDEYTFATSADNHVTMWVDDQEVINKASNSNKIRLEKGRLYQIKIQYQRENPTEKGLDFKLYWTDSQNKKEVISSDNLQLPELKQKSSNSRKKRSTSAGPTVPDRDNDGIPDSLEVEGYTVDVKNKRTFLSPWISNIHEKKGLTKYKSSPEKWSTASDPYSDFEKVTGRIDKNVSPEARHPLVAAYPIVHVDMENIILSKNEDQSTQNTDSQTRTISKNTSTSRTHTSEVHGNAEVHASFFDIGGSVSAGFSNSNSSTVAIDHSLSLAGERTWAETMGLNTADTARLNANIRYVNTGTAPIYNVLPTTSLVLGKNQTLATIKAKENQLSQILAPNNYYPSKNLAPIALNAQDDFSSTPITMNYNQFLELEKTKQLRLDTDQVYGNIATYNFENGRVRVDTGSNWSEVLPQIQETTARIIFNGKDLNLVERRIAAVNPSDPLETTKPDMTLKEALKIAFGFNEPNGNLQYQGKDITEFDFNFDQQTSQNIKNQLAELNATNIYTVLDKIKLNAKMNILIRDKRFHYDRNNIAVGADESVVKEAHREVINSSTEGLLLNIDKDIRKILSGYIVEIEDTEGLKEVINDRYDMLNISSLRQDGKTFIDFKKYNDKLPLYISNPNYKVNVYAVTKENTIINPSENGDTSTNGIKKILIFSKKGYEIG

Substance	Mn (mean fluorescence intensity)
26-10 scFv (anti-digoxin)	8.49
M18 scFv (PelB fused, anti-PA)	10.3
PelB-2610scFv-Im2-FLAG	9.12
PelB-M18scFv-Im2-FLAG	249
